From the nanobody polyreactivity screen of Harvey et al. (2022)

assay: yeast display, Sf9 membrane polyspecificity reagent, FACS + sequencing; frameworks hold sequencing errors
How it was run: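 In a synthetic yeast display library (Saccharomyces cerevisiae BJ5465), nanobody expression was induced with galactose for 36–48 hours. FACS gates were set low and high (top ~1%) using anti-HA fluorescence for expression and streptavidin fluorescence for binding of the Sf9 membrane reagent. Each polyreactivity label is drawn from the gate of origin.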

| Sequence | polyreactivity (PSR sort gate) |
| --- | --- |
| QVQLVESGGGLVQAGGSLRLSCAASGFTFRVNAMGWYRQAPGKERELVAAISSGGSTNYADSVKGRFTISRDNAKNTVYLQMNSLKPEDTAVYYCAKRFKYIYYWGQGTQVTVSS | high polyreactivity |
| QVQLVESGGGLVQAGGSLRLSCAASGFTFRVNAMGWYRQAPGKERELVAAISWTGGSTYYADSVKGRFTISRDNAKNTVYLQMNSLKPEDTAVYYCATRFGGRYNEFGFWGQGTQVTVSS | low polyreactivity |
| QVQLVESGGGLVQAGGSLRLSCAASGFTFRVYAMGWNRQAPGKEREFVASITWGGGRPYYADSVKGRFTISRDNAKNTVYLQMNSLKPEDTAVYYCAAYGRLDSYVSYYYWGQGTQVTVSS | high polyreactivity |
| QVQLVESGGGLVQAGGSLRLSCAASGFTFRVYAMGWYRQPPGKERELVAVISGTGGRTYYADSVKGRFTISRDNAKNTVYLQMNSLKPEDTAVYYCAAVGLTPKAIWTSDYWGQGTQVTVSS | high polyreactivity |
| QVQLVESGGGLVQAGGSLRLSCAASGFTFRWYAMGWYRQAPGKERELVAAITSDDNTYYADSVKGRFTISRDNAKNTVYLQMNSLKPEDTAVYYCAAEYADYWTYNMGYWGQGTQVTVSS | low polyreactivity |
| QVQLVESGGGLVQAGGSLRLSCAASGFTFRWYAMGWYRQAPGKERELVAAITSRGGTTYYADSVKGRFTISRDNAKNTVYLQMNSLKPEDTAVYYCAALNSGYIGMDYWGQGTQVTVSS | high polyreactivity |
| QVQLVESGGGLVQAGGSLRLSCAASGFTFRYYAMGWSRQDPGKERELVAAITNVGSTNYADSVKGRFTISRDNAKYTVYLLMNSLKPEDTAVYYCNAPRTPWRRSYDYWGQGTQVTVSW | high polyreactivity |
| QVQLVESGGGLVQAGGSLRLSCAASGFTFRYYAMGWYRQAPGKEREFVAAITYNGVSTYYADSVKGRFTISRDNAKNTVYLQMNSLKPEDTAVYYCAADVLLSRSNTPQRPSRLYYWGQGTQVTVSS | high polyreactivity |
| QVQLVESGGGLVQAGGSLRLSCAASGFTFRYYAMGWYRQAPGKERELLAAISWSGGSTYYADSVKGRFTISRDNAKNTVYLQMNSLNPEDTAVYYCAADSVFGGRGRYQASRYYYWGQGPQVTVSS | high polyreactivity |
| QVQLVESGGGLVQAGGSLRLSCAASGFTFRYYAMGWYRQAPGKERELVAAISRSGGSTYYADSVKGRFTISRDNAKNTVYLQMNSLKPEDTAVYYCAARSHGWTPHGYDYWGQGTQVTVSS | high polyreactivity |
| QVQLVESGGGLVQAGGSLRLSCAASGFTFRYYAMGWYRQAPGKERELVAAISYRGGRTYYADSVKGRFTISRDNAKNTVYLQMNSLKPEDTAVYYCAVDYTLADVIYDYWGQGTQVTVSS | high polyreactivity |
| QVQLVESGGGLVQAGGSLRLSCAASGFTFRYYAMGWYRQAPGKERELVAAITGSGGRTYYADSVKGRFTISRDNAKNTVYLQMNSLKPEDTAVYYCARDVDPRGRYYWGQGTQVTVSS | high polyreactivity |
| QVQLVESGGGLVQAGGSLRLSCAASGFTFRYYAMGWYRQAPGKERELVAAITSGDSTYYADSVKGRFTISRDNAKNTVYLQMNSLKPEDTAVYYCNKDRRPTADFGYWGQGTQVTVSS | high polyreactivity |
| QVQLVESGGGLVQAGGSLRLSCAASGFTFRYYAMGWYRQAPGKERELVADITWSGTRTYYADSVKGRFTISRDNAKNTVYLQMNSLKPEDTAVYYCAKVTWVRGSYYRNKSSIYDYWGQGTQVTVSS | high polyreactivity |
| QVQLVESGGGLVQAGGSLRLSCAASGFTFRYYAMGWYRQAPGKERELVASINWSGGSTYYADSVKGRFTISRDNAKNTVYLQMNSLKPEDTAVYYCAADSIWGHYFARFDYWGQGTQVTVSS | high polyreactivity |
| QVQLVESGGGLVQAGGSLRLSCAASGFTFRYYAMGWYRQAPGKERELVASTYYADYVKGRFTISRDNAKNTVYLQMNSLKPEDTAVYYCNVDGTSSSPFVQKHKEMDYWGQGTQVTVSS | low polyreactivity |
| QVQLVESGGGLVQAGGSLRLSCAASGFTFRYYAMGWYRQAPGKERELVATIRTSGGSTYYADSVKGRFTISRDNAKNTVYLQMNSLKPEDTAVYYCAVRGRNWQHTRFNYWGQGTQVTVSS | high polyreactivity |
| QVQLVESGGGLVQAGGSLRLSCAASGFTFRYYAMGWYRQAPGKEWELVARITWNGGRTYYADSVKGRFTISRDNAKNTLYLQMNSLKPEDTAVYYCAARGFYRSYYWGQGTQVTVSS | high polyreactivity |
| QVQLVESGGGLVQAGGSLRLSCAASGFTFRYYAMGWYRQAPGTERELVAGITRSGGSTYYADSVKGRFTISRDNAKNTVYLQMNSLKPEDTAVYYCAAYRSIYGTRAPREFESWGQGTQVTVSS | high polyreactivity |
| QVQLVESGGGLVQAGGSLRLSCAASGFTFRYYAMVWYRQAPGKERELVAAISYSGGSTYYADSVKGRFTISRDNAKNTVYLQMNCLKPEDTAVYYCAAYYPYSREMGYWGQGTQVTVSS | high polyreactivity |
| QVQLVESGGGLVQAGGSLRLSCAASGFTFRYYVMGWYRQAPGKERELVAAITSGGRTHYADSVKGRFTISRDNAKNTDYLQMNSLKPEDTAVYYCAVRTQFAGLHYYYGYWGQGTQVTVSS | high polyreactivity |

| Sequence | polyreactivity (PSR sort gate) |
| --- | --- |
| QVQLVESGGGLVQAGGSLRLSCAASGFTFRYYVMGWYRQAPGKERELVAAITSGGSTNYADSVKGRFTISRDNAKNTVYLQMNSLKPEDTAVYYCYAAYRSYGRFDYWGQGTQVTVSS | low polyreactivity |
| QVQLVESGGGLVQAGGSLRLSCAASGFTFRYYVMGWYRQSPGKERELVAAISWSGGSTYYADSVKGRFTISRDNAKNTVYLQMNSLKPEDTAVYYCNAASLSKSDYWGQGTQVTVSS | high polyreactivity |
| QVQLVESGGGLVQAGGSLRLSCAASGFTFRYYVMGWYRQSPGKERELVASISRAGSTTNYADSVKGRFTISRDNAKNTVYLQMNSLNPEDTAVYYCNVVITPGYSYDISRGEGYWGQGTQVTVSS | high polyreactivity |
| QVQLVESGGGLVQAGGSLRLSCAASGFTFSAYTMGWYRQAPGKERELVADISSRGGSTYYADSVKGRFTISRDNAKNTVYLQMNSLKPEDTAVYYCAAVWYWTQDYDYWGQGTQVTVSS | low polyreactivity |
| QVQLVESGGGLVQAGGSLRLSCAASGFTFSENAMGWYRQAPGRERELVADIPRSGGNTHYADSEKGRFTISRDNAKNTVYLQMNSLKPEDTAVYYCAARVQWLGYGYYYWGQGTQVTVSS | high polyreactivity |
| QVQLVESGGGLVQAGGSLRLSCAASGFTFSFNAMGWYRQAPGKERELVAAITTADSTYYADSVKGRFTISRDNAKNTVYLQMNSLKPEDTAVYYCAADSYYYGYQGQTQYGWVWYDYWGQGTQVTVSS | low polyreactivity |
| QVQLVESGGGLVQAGGSLRLSCAASGFTFSFYAMGWYRQAPGKERELVATISSGGSTTYADSVKGRFTISRDNAKNTVYLQMNSLKPEDTAVYYCAARGKYYRSQDPSGPRRYDYWGQGTQVTVSS | high polyreactivity |
| QVQLVESGGGLVQAGGSLRLSCAASGFTFSGYAMGWYRQAPGKERELVAAITRRGGSTYYADSVKGRFTISRDNAKNTVYLQMNSLKPEDTAVYYCAADSGYPWELDYWGQGTQVTVSS | low polyreactivity |
| QVQLVESGGGLVQAGGSLRLSCAASGFTFSHYAKGWYRQAPGKDRELVAAITASGGNTYYADSVKGRFTISRDNAKNTVYLQMNSLKPEDTAVYYCNAVSLKFTRKYEYWGQGTQVTVSS | high polyreactivity |
| QVQLVESGGGLVQAGGSLRLSCAASGFTFSHYAMGWYRQAPGKERELVAAISWGGGSTYYADSVKGRFTISRDNAKNTVYLQMNSLKPEDTAVYYCARDVVYRGYYYGAFVYWGQGTQVTVSS | low polyreactivity |
| QVQLVESGGGLVQAGGSLRLSCAASGFTFSHYAMGWYRQAPGKERELVAAITASGGNTYYADSVKGRFTISRDNAKNTVYLQMNSLKPEDTAVYYCNAVSLKFTRKFDYWGQGTQVTVSS | high polyreactivity |
| QVQLVESGGGLVQAGGSLRLSCAASGFTFSKYAMGWYRPAPGKERELVAAISGSGGSTYYADSVKGRFTISRDNAKITVYLQMNSLKPEDTAVYYCAADGPGKYDYWGQGTQVTVSS | high polyreactivity |
| QVQLVESGGGLVQAGGSLRLSCAASGFTFSMYGMGWYRKAPGKERELVAAIRSGGSTNYADSVKGRFTISRDNAKNTVYLQMNSLKPEDTAVYYCAADVIPDGVKKPRMYYWGQGTQVTVSS | low polyreactivity |
| QVQLVESGGGLVQAGGSLRLSCAASGFTFSNYAMGWYRQAPGKERELVAAISRSGGSTYYADSVKGRFTISRDNAKNTVYLKMNSLKPEDTAVYYCNAVRYHARSGWSDYWGQGTQVTVSS | high polyreactivity |
| QVQLVESGGGLVQAGGSLRLSCAASGFTFSNYDMGWYRQAPGKEREFVADIDWSGGTTYYADSVKGRFTISRDNAKNTVYLQMNSLKPEDTAVYYCATDGYRALSYKYDYWGQGTQVTVSS | low polyreactivity |
| QVQLVESGGGLVQAGGSLRLSCAASGFTFSPNAMGWYRQAPGKERELVAAIDWSGDRTYYADSVKGRFTISRDNAKNTVYLQMNSLKPEDTAVEYCNVVRRSPGDYSYYYWGQGTQVTVSS | low polyreactivity |
| QVQLVESGGGLVQAGGSLRLSCAASGFTFSPNAMGWYRQAPGKERELVAAITTTGGSTHYADSVKRRFTISRDHAKNTVYLQMHSLKQEDTAVYYCAADWYFEYPTAFHYEYWGQGTQVTVSS | high polyreactivity |
| QVQLVESGGGLVQAGGSLRLSCAASGFTFSQYAMGWYRQAPGKERELVAAINSRGGSTYYADSVKGRFTISRDNAKNTVYLQMNSLKPEDTAVYYCNAVISGYPYEYDYWGQGTQVTVSS | high polyreactivity |
| QVQLVESGGGLVQAGGSLRLSCAASGFTFSRNAMGWYRQAPGKERELVAAISQSGGSTYYADSVKGRFTISRDNAKNTVYLQMHSLKPEDTAVYYCAAVGRLARRDYWGQGTQVTVSS | high polyreactivity |
| QVQLVESGGGLVQAGGSLRLSCAASGFTFSRYAMGWYRQAPGKERELVAAIRLRDGITYYADSVKGRFTISRDNAKNTVYLQMISLKPEDTAVYYCNAVNRTPVSQLDYWGQGTQVTVSS | high polyreactivity |
